Laboratory results: US20150344570A1 (published 2015)

B1: GpH7-A5/GpH7-B3 variant Q295_13S/GpL16-k0 (antibody, human IgG1, kappa)
heavy 1: not shown
heavy 2: not shown
light: DIVMTQSPLSLPVTPGEPASISCQASESLVHSNRNTYLHWYLQKPGQSPQLLIYKVSNRFSGVPDRFSGSGSGTDFTLKISRVEAEDVGVYYCSQNTHVPPTFGQGTKVEIERTVAAPSVFIFPPSDEQLKSGTASVVCLLNNFYPREAKVQWKVDNALQSGNSQESVTEQDSKDSTYSLSSTLTLSKADYEKHKVYACEVTHQGLSSPVTKSFNRGEC
notes: heterodimerized IgG1, mutation in one H chain; also called He Ab
B2: GpH7-A5/GpH7-B3 variant S298_16H/GpL16-k0 (antibody, human IgG1, kappa)
heavy 1: not shown
heavy 2: not shown
light: DIVMTQSPLSLPVTPGEPASISCQASESLVHSNRNTYLHWYLQKPGQSPQLLIYKVSNRFSGVPDRFSGSGSGTDFTLKISRVEAEDVGVYYCSQNTHVPPTFGQGTKVEIERTVAAPSVFIFPPSDEQLKSGTASVVCLLNNFYPREAKVQWKVDNALQSGNSQESVTEQDSKDSTYSLSSTLTLSKADYEKHKVYACEVTHQGLSSPVTKSFNRGEC
notes: as for B1
B3: GpH7-A5/GpH7-B3 variant S324_03V/GpL16-k0 (antibody, human IgG1, kappa)
heavy 1: not shown
heavy 2: not shown
light: DIVMTQSPLSLPVTPGEPASISCQASESLVHSNRNTYLHWYLQKPGQSPQLLIYKVSNRFSGVPDRFSGSGSGTDFTLKISRVEAEDVGVYYCSQNTHVPPTFGQGTKVEIERTVAAPSVFIFPPSDEQLKSGTASVVCLLNNFYPREAKVQWKVDNALQSGNSQESVTEQDSKDSTYSLSSTLTLSKADYEKHKVYACEVTHQGLSSPVTKSFNRGEC
notes: as for B1
B4: GpH7-A5/GpH7-B3 variant S267_03V/GpL16-k0 (antibody, human IgG1, kappa)
heavy 1: not shown
heavy 2: not shown
light: DIVMTQSPLSLPVTPGEPASISCQASESLVHSNRNTYLHWYLQKPGQSPQLLIYKVSNRFSGVPDRFSGSGSGTDFTLKISRVEAEDVGVYYCSQNTHVPPTFGQGTKVEIERTVAAPSVFIFPPSDEQLKSGTASVVCLLNNFYPREAKVQWKVDNALQSGNSQESVTEQDSKDSTYSLSSTLTLSKADYEKHKVYACEVTHQGLSSPVTKSFNRGEC
notes: as for B1
B5: GpH7-A5/GpH7-B3 variant S298_03V/GpL16-k0 (antibody, human IgG1, kappa)
heavy 1: not shown
heavy 2: not shown
light: DIVMTQSPLSLPVTPGEPASISCQASESLVHSNRNTYLHWYLQKPGQSPQLLIYKVSNRFSGVPDRFSGSGSGTDFTLKISRVEAEDVGVYYCSQNTHVPPTFGQGTKVEIERTVAAPSVFIFPPSDEQLKSGTASVVCLLNNFYPREAKVQWKVDNALQSGNSQESVTEQDSKDSTYSLSSTLTLSKADYEKHKVYACEVTHQGLSSPVTKSFNRGEC
notes: as for B1
B6: GpH7-A5/GpH7-B3 variant S267_02A/GpL16-k0 (antibody, human IgG1, kappa)
heavy 1: not shown
heavy 2: not shown
light: DIVMTQSPLSLPVTPGEPASISCQASESLVHSNRNTYLHWYLQKPGQSPQLLIYKVSNRFSGVPDRFSGSGSGTDFTLKISRVEAEDVGVYYCSQNTHVPPTFGQGTKVEIERTVAAPSVFIFPPSDEQLKSGTASVVCLLNNFYPREAKVQWKVDNALQSGNSQESVTEQDSKDSTYSLSSTLTLSKADYEKHKVYACEVTHQGLSSPVTKSFNRGEC
notes: as for B1
B7: GpH7-A5/GpH7-B3 variant S324_08L/GpL16-k0 (antibody, human IgG1, kappa)
heavy 1: not shown
heavy 2: not shown
light: DIVMTQSPLSLPVTPGEPASISCQASESLVHSNRNTYLHWYLQKPGQSPQLLIYKVSNRFSGVPDRFSGSGSGTDFTLKISRVEAEDVGVYYCSQNTHVPPTFGQGTKVEIERTVAAPSVFIFPPSDEQLKSGTASVVCLLNNFYPREAKVQWKVDNALQSGNSQESVTEQDSKDSTYSLSSTLTLSKADYEKHKVYACEVTHQGLSSPVTKSFNRGEC
notes: as for B1
B8: GpH7-A5/GpH7-B3 variant S239_09D/GpL16-k0 (antibody, human IgG1, kappa)
heavy 1: not shown
heavy 2: not shown
light: DIVMTQSPLSLPVTPGEPASISCQASESLVHSNRNTYLHWYLQKPGQSPQLLIYKVSNRFSGVPDRFSGSGSGTDFTLKISRVEAEDVGVYYCSQNTHVPPTFGQGTKVEIERTVAAPSVFIFPPSDEQLKSGTASVVCLLNNFYPREAKVQWKVDNALQSGNSQESVTEQDSKDSTYSLSSTLTLSKADYEKHKVYACEVTHQGLSSPVTKSFNRGEC
notes: as for B1
B9: GpH7-A5/GpH7-B3 variant S298_10E/GpL16-k0 (antibody, human IgG1, kappa)
heavy 1: not shown
heavy 2: not shown
light: DIVMTQSPLSLPVTPGEPASISCQASESLVHSNRNTYLHWYLQKPGQSPQLLIYKVSNRFSGVPDRFSGSGSGTDFTLKISRVEAEDVGVYYCSQNTHVPPTFGQGTKVEIERTVAAPSVFIFPPSDEQLKSGTASVVCLLNNFYPREAKVQWKVDNALQSGNSQESVTEQDSKDSTYSLSSTLTLSKADYEKHKVYACEVTHQGLSSPVTKSFNRGEC
notes: as for B1
B10: GpH7-A5/GpH7-B3 variant S239_01G/GpL16-k0 (antibody, human IgG1, kappa)
heavy 1: not shown
heavy 2: not shown
light: DIVMTQSPLSLPVTPGEPASISCQASESLVHSNRNTYLHWYLQKPGQSPQLLIYKVSNRFSGVPDRFSGSGSGTDFTLKISRVEAEDVGVYYCSQNTHVPPTFGQGTKVEIERTVAAPSVFIFPPSDEQLKSGTASVVCLLNNFYPREAKVQWKVDNALQSGNSQESVTEQDSKDSTYSLSSTLTLSKADYEKHKVYACEVTHQGLSSPVTKSFNRGEC
notes: as for B1
B11: GpH7-A5/GpH7-B3 variant S267_01G/GpL16-k0 (antibody, human IgG1, kappa)
heavy 1: not shown
heavy 2: not shown
light: DIVMTQSPLSLPVTPGEPASISCQASESLVHSNRNTYLHWYLQKPGQSPQLLIYKVSNRFSGVPDRFSGSGSGTDFTLKISRVEAEDVGVYYCSQNTHVPPTFGQGTKVEIERTVAAPSVFIFPPSDEQLKSGTASVVCLLNNFYPREAKVQWKVDNALQSGNSQESVTEQDSKDSTYSLSSTLTLSKADYEKHKVYACEVTHQGLSSPVTKSFNRGEC
notes: as for B1
B12: GpH7-A5/GpH7-B3 variant S324_02A/GpL16-k0 (antibody, human IgG1, kappa)
heavy 1: not shown
heavy 2: not shown
light: DIVMTQSPLSLPVTPGEPASISCQASESLVHSNRNTYLHWYLQKPGQSPQLLIYKVSNRFSGVPDRFSGSGSGTDFTLKISRVEAEDVGVYYCSQNTHVPPTFGQGTKVEIERTVAAPSVFIFPPSDEQLKSGTASVVCLLNNFYPREAKVQWKVDNALQSGNSQESVTEQDSKDSTYSLSSTLTLSKADYEKHKVYACEVTHQGLSSPVTKSFNRGEC
notes: as for B1
B13: GpH7-A5/GpH7-B3 variant S324_14T/GpL16-k0 (antibody, human IgG1, kappa)
heavy 1: not shown
heavy 2: not shown
light: DIVMTQSPLSLPVTPGEPASISCQASESLVHSNRNTYLHWYLQKPGQSPQLLIYKVSNRFSGVPDRFSGSGSGTDFTLKISRVEAEDVGVYYCSQNTHVPPTFGQGTKVEIERTVAAPSVFIFPPSDEQLKSGTASVVCLLNNFYPREAKVQWKVDNALQSGNSQESVTEQDSKDSTYSLSSTLTLSKADYEKHKVYACEVTHQGLSSPVTKSFNRGEC
notes: as for B1
B14: GpH7-A5/GpH7-B3 variant S267_09D/GpL16-k0 (antibody, human IgG1, kappa)
heavy 1: not shown
heavy 2: not shown
light: DIVMTQSPLSLPVTPGEPASISCQASESLVHSNRNTYLHWYLQKPGQSPQLLIYKVSNRFSGVPDRFSGSGSGTDFTLKISRVEAEDVGVYYCSQNTHVPPTFGQGTKVEIERTVAAPSVFIFPPSDEQLKSGTASVVCLLNNFYPREAKVQWKVDNALQSGNSQESVTEQDSKDSTYSLSSTLTLSKADYEKHKVYACEVTHQGLSSPVTKSFNRGEC
notes: as for B1
B15: GpH7-A5/GpH7-B3 variant S298_08L/GpL16-k0 (antibody, human IgG1, kappa)
heavy 1: not shown
heavy 2: not shown
light: DIVMTQSPLSLPVTPGEPASISCQASESLVHSNRNTYLHWYLQKPGQSPQLLIYKVSNRFSGVPDRFSGSGSGTDFTLKISRVEAEDVGVYYCSQNTHVPPTFGQGTKVEIERTVAAPSVFIFPPSDEQLKSGTASVVCLLNNFYPREAKVQWKVDNALQSGNSQESVTEQDSKDSTYSLSSTLTLSKADYEKHKVYACEVTHQGLSSPVTKSFNRGEC
notes: as for B1
B16: GpH7-A5/GpH7-B3 variant S298_19Q/GpL16-k0 (antibody, human IgG1, kappa)
heavy 1: not shown
heavy 2: not shown
light: DIVMTQSPLSLPVTPGEPASISCQASESLVHSNRNTYLHWYLQKPGQSPQLLIYKVSNRFSGVPDRFSGSGSGTDFTLKISRVEAEDVGVYYCSQNTHVPPTFGQGTKVEIERTVAAPSVFIFPPSDEQLKSGTASVVCLLNNFYPREAKVQWKVDNALQSGNSQESVTEQDSKDSTYSLSSTLTLSKADYEKHKVYACEVTHQGLSSPVTKSFNRGEC
notes: as for B1
B17: GpH7-A5/GpH7-B3 variant S298_18N/GpL16-k0 (antibody, human IgG1, kappa)
heavy 1: not shown
heavy 2: not shown
light: DIVMTQSPLSLPVTPGEPASISCQASESLVHSNRNTYLHWYLQKPGQSPQLLIYKVSNRFSGVPDRFSGSGSGTDFTLKISRVEAEDVGVYYCSQNTHVPPTFGQGTKVEIERTVAAPSVFIFPPSDEQLKSGTASVVCLLNNFYPREAKVQWKVDNALQSGNSQESVTEQDSKDSTYSLSSTLTLSKADYEKHKVYACEVTHQGLSSPVTKSFNRGEC
notes: as for B1
B18: GpH7-A5/GpH7-B3 variant S298_14T/GpL16-k0 (antibody, human IgG1, kappa)
heavy 1: not shown
heavy 2: not shown
light: DIVMTQSPLSLPVTPGEPASISCQASESLVHSNRNTYLHWYLQKPGQSPQLLIYKVSNRFSGVPDRFSGSGSGTDFTLKISRVEAEDVGVYYCSQNTHVPPTFGQGTKVEIERTVAAPSVFIFPPSDEQLKSGTASVVCLLNNFYPREAKVQWKVDNALQSGNSQESVTEQDSKDSTYSLSSTLTLSKADYEKHKVYACEVTHQGLSSPVTKSFNRGEC
notes: as for B1
B19: GpH7-A5/GpH7-B3 variant S298_07I/GpL16-k0 (antibody, human IgG1, kappa)
heavy 1: not shown
heavy 2: not shown
light: DIVMTQSPLSLPVTPGEPASISCQASESLVHSNRNTYLHWYLQKPGQSPQLLIYKVSNRFSGVPDRFSGSGSGTDFTLKISRVEAEDVGVYYCSQNTHVPPTFGQGTKVEIERTVAAPSVFIFPPSDEQLKSGTASVVCLLNNFYPREAKVQWKVDNALQSGNSQESVTEQDSKDSTYSLSSTLTLSKADYEKHKVYACEVTHQGLSSPVTKSFNRGEC
notes: as for B1
B20: GpH7-A5/GpH7-B3 variant S298_15Y/GpL16-k0 (antibody, human IgG1, kappa)
heavy 1: not shown
heavy 2: not shown
light: DIVMTQSPLSLPVTPGEPASISCQASESLVHSNRNTYLHWYLQKPGQSPQLLIYKVSNRFSGVPDRFSGSGSGTDFTLKISRVEAEDVGVYYCSQNTHVPPTFGQGTKVEIERTVAAPSVFIFPPSDEQLKSGTASVVCLLNNFYPREAKVQWKVDNALQSGNSQESVTEQDSKDSTYSLSSTLTLSKADYEKHKVYACEVTHQGLSSPVTKSFNRGEC
notes: as for B1
B21: GpH7-A5/GpH7-B3 variant Q295_18N/GpL16-k0 (antibody, human IgG1, kappa)
heavy 1: not shown
heavy 2: not shown
light: DIVMTQSPLSLPVTPGEPASISCQASESLVHSNRNTYLHWYLQKPGQSPQLLIYKVSNRFSGVPDRFSGSGSGTDFTLKISRVEAEDVGVYYCSQNTHVPPTFGQGTKVEIERTVAAPSVFIFPPSDEQLKSGTASVVCLLNNFYPREAKVQWKVDNALQSGNSQESVTEQDSKDSTYSLSSTLTLSKADYEKHKVYACEVTHQGLSSPVTKSFNRGEC
notes: as for B1
B22: GpH7-A5/GpH7-B3 variant Q295_14T/GpL16-k0 (antibody, human IgG1, kappa)
heavy 1: not shown
heavy 2: not shown
light: DIVMTQSPLSLPVTPGEPASISCQASESLVHSNRNTYLHWYLQKPGQSPQLLIYKVSNRFSGVPDRFSGSGSGTDFTLKISRVEAEDVGVYYCSQNTHVPPTFGQGTKVEIERTVAAPSVFIFPPSDEQLKSGTASVVCLLNNFYPREAKVQWKVDNALQSGNSQESVTEQDSKDSTYSLSSTLTLSKADYEKHKVYACEVTHQGLSSPVTKSFNRGEC
notes: as for B1

Target: T1, FcγRIa (human, UniProt P12314 16-292)
T1 construct: extracellular domain; soluble extracellular domain with C-terminal His tag, expressed in FreeStyle293 cells; also called FcgRI; FcgRIa
T1 sequence (P12314 16-292): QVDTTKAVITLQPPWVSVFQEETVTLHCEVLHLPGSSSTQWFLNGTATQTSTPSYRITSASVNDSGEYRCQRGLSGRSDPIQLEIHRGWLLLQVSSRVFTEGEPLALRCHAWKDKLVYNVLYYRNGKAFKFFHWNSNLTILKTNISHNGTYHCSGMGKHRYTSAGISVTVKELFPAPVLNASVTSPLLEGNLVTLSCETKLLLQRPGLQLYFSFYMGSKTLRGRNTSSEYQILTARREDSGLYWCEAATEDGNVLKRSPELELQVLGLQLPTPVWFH
Test: SPR (Biacore), captured antibody, FcγRIa analyte; relative to HeCon Ab GpH7-A5/GpH7-B3/GpL16-k0 = 100

Binder	He/Con_1a
B1	102 % of control
B2	109 % of control
B3	104 % of control
B4	106 % of control
B5	110 % of control
B6	109 % of control
B7	103 % of control
B8	101 % of control
B9	108 % of control
B10	101 % of control
B11	103 % of control
B12	103 % of control
B13	121 % of control
B14	110 % of control
B15	107 % of control
B16	109 % of control
B17	108 % of control
B18	107 % of control
B19	107 % of control
B20	107 % of control
B21	102 % of control
B22	103 % of control
